Laboratory results from US20170190753A1 (LABORATOIRE FRANCAIS DU FRACTIONNEMENT ET DES …, published 2017).
Values belong to the binder of their own block, whether it stands above or below them.

Biological target: C3 convertase complex (UniProt P01024 23-1663; P00751 260-764)
Assay: cell-based or functional assay
Throughout, for C3 convertase activity % of the control: test concentration or dose not given here.

Sequence of C3 convertase complex (P01024 23-1663, chain 1 of 2): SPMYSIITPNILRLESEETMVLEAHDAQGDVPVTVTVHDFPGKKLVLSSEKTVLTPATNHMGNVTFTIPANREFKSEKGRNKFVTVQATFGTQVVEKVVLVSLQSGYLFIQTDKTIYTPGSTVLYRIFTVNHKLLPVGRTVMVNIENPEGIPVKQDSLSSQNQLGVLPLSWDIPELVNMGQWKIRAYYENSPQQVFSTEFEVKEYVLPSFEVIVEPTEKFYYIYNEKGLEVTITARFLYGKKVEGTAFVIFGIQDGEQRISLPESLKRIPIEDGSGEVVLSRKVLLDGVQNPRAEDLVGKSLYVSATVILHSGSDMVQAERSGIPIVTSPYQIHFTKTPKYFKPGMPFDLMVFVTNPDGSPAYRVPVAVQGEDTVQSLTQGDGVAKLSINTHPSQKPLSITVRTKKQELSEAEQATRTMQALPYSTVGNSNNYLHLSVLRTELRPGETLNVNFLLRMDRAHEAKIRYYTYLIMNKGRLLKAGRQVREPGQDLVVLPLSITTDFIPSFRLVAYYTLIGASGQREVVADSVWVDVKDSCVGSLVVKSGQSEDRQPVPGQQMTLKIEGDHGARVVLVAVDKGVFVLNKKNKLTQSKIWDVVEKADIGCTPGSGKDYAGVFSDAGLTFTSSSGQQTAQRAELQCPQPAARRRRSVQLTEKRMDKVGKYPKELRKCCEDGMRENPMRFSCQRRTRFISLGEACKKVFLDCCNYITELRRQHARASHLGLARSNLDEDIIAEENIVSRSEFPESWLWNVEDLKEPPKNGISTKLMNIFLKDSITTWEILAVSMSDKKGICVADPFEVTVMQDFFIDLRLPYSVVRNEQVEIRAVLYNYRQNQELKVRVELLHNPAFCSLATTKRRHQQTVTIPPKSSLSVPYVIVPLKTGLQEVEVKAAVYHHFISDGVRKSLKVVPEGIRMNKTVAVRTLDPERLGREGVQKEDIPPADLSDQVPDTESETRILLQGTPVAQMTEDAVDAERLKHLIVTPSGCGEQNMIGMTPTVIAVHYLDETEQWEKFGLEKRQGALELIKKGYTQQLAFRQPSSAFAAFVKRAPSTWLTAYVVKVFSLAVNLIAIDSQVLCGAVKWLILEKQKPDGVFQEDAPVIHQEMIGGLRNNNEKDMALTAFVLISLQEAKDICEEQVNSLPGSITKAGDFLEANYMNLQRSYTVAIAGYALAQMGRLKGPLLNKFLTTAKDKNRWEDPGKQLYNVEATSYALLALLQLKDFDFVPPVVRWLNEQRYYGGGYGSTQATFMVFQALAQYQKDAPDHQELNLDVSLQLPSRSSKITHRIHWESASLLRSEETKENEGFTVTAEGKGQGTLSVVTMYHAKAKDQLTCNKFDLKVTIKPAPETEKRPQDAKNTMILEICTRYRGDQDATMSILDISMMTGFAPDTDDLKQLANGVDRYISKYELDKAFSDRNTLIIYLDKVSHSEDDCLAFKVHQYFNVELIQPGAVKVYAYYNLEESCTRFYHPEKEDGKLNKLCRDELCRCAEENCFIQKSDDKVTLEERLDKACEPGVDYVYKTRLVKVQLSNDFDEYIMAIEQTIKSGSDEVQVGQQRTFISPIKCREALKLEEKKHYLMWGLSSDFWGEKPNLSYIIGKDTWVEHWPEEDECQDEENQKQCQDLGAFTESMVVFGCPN
Sequence of C3 convertase complex (P00751 260-764, chain 2 of 2): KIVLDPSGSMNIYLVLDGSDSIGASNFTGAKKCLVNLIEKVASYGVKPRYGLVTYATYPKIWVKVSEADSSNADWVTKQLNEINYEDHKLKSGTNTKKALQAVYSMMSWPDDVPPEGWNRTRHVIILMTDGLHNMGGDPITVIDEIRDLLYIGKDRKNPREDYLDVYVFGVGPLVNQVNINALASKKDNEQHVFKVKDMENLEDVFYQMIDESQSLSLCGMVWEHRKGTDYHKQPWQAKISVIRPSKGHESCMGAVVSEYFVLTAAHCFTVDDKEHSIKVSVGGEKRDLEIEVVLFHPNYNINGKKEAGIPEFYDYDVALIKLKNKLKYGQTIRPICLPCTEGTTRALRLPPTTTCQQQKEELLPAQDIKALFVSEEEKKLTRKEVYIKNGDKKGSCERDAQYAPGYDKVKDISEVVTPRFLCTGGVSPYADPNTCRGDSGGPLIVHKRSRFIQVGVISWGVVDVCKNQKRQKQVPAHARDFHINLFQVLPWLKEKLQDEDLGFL

C3 convertase activity % of the control: 25 % of the control
C3 convertase activity IC50: 0.426 µg/mL
B1: pCEP4-1NT8-16CT20 (other)
chain: EDCNELPPRRNTEILTGSWSDQTYPEGTQAIYKCRPGYRSLGNVIMVCRKGEWVALNPLRKCQKRPCGHPGDTPFGTFTLTGGNVFEYGVKAVYTCNEGYQLLGEINYRECDTDGWTNDIPICEVVKCLPVTAPENGKIVSSAMEPDREYHFGQAVRFVCNSGYKIEGDEEMHCSDDGFWSKEKPKCVEISCKSPDVINGSPISQKIIYKENERFQYKCNMGYEYSERGDAVCTESGWRPLPSCEEKSCDNPYIPNGDYSPLRIKHRTGDEITYQCRNGFYPATRGNTAKCTSTGWIPAPRCTLKPCDYPDIKHGGLYHENMRRPYFPVAVGKYYSYYCDEHFETPSGSYWDHIHCTQDGWSPAVPCLRKCYFPYLENGYNQNYGRKFVQGKSIDVACHPGYALPKAQTTVTCMENGWSPTPRCIRVKTCSKSSIDIENGFISESQYTYALKEKAKYQCKLGYVTADGETSGSITCGKDGWSAQPTCIKSGASGCKSPPEISHGVVAHMSDSYQYGEEVTYKCFEGFGIDGPAIAKCLGEKWSHPPSCIKTDCLSLPSFENAIPMGEKKDVYKAGEQVTYTCATYYKMDGASNVTCINSRWTGRPTCRDTSCVNPPTVQNAYIVSRQMSKYPSGERVRYQCRSPYEMFGDEEVMCLNGNWTEPPQCKDSTGKCGPPPPIDNGDITSFPLSVYAPASSVEYQCQNLYQLEGNKRITCRNGQWSEPPKCLHPCVISREIMENYNIALRWTAKQKLYSRTGESVEFVCKRGYRLSSRSHTLRTTCWDGKLEYPTCAKRGGSGHHHHHH

C3 convertase activity % of the control: 15 % of the control
C3 convertase activity IC50: 0.618 µg/mL
B2: pCEP4-1NT4-14CT20 (other)
chain: EDCNELPPRRNTEILTGSWSDQTYPEGTQAIYKCRPGYRSLGNVIMVCRKGEWVALNPLRKCQKRPCGHPGDTPFGTFTLTGGNVFEYGVKAVYTCNEGYQLLGEINYRECDTDGWTNDIPICEVVKCLPVTAPENGKIVSSAMEPDREYHFGQAVRFVCNSGYKIEGDEEMHCSDDGFWSKEKPKCVEISCKSPDVINGSPISQKIIYKENERFQYKCNMGYEYSERGDAVCTESGWRPLPSCEEKSGASGCPPPPQIPNSHNMTTTLNYRDGEKVSVLCQENYLIQEGEEITCKDGRWQSIPLCVEKIPCSQPPQIEHGTINSSRSSQESYAHGTKLSYTCEGGFRISEENETTCYMGKWSSPPQCEGLPCKSPPEISHGVVAHMSDSYQYGEEVTYKCFEGFGIDGPAIAKCLGEKWSHPPSCIKTDCLSLPSFENAIPMGEKKDVYKAGEQVTYTCATYYKMDGASNVTCINSRWTGRPTCRDTSCVNPPTVQNAYIVSRQMSKYPSGERVRYQCRSPYEMFGDEEVMCLNGNWTEPPQCKDSTGKCGPPPPIDNGDITSFPLSVYAPASSVEYQCQNLYQLEGNKRITCRNGQWSEPPKCLHPCVISREIMENYNIALRWTAKQKLYSRTGESVEFVCKRGYRLSSRSHTLRTTCWDGKLEYPTCAKRGGSGHHHHHH

C3 convertase activity % of the control: 17 % of the control
C3 convertase activity IC50: 0.546 µg/mL
B3: pCEP4-1NT4-11CT20 (other)
chain: EDCNELPPRRNTEILTGSWSDQTYPEGTQAIYKCRPGYRSLGNVIMVCRKGEWVALNPLRKCQKRPCGHPGDTPFGTFTLTGGNVFEYGVKAVYTCNEGYQLLGEINYRECDTDGWTNDIPICEVVKCLPVTAPENGKIVSSAMEPDREYHFGQAVRFVCNSGYKIEGDEEMHCSDDGFWSKEKPKCVEISCKSPDVINGSPISQKIIYKENERFQYKCNMGYEYSERGDAVCTESGWRPLPSCEEKSGASGCGPPPELLNGNVKEKTKEEYGHSEVVEYYCNPRFLMKGPNKIQCVDGEWTTLPVCIVEESTCGDIPELEHGWAQLSSPPYYYGDSVEFNCSESFTMIGHRSITCIHGVWTQLPQCVAIDKLKKCKSSNLIILEEHLKNKKEFDHNSNIRYRCRGKEGWIHTVCINGRWDPEVNCSMAQIQLCPPPPQIPNSHNMTTTLNYRDGEKVSVLCQENYLIQEGEEITCKDGRWQSIPLCVEKIPCSQPPQIEHGTINSSRSSQESYAHGTKLSYTCEGGFRISEENETTCYMGKWSSPPQCEGLPCKSPPEISHGVVAHMSDSYQYGEEVTYKCFEGFGIDGPAIAKCLGEKWSHPPSCIKTDCLSLPSFENAIPMGEKKDVYKAGEQVTYTCATYYKMDGASNVTCINSRWTGRPTCRDTSCVNPPTVQNAYIVSRQMSKYPSGERVRYQCRSPYEMFGDEEVMCLNGNWTEPPQCKDSTGKCGPPPPIDNGDITSFPLSVYAPASSVEYQCQNLYQLEGNKRITCRNGQWSEPPKCLHPCVISREIMENYNIALRWTAKQKLYSRTGESVEFVCKRGYRLSSRSHTLRTTCWDGKLEYPTCAKRGGSGHHHHHH

C3 convertase activity % of the control: 25 % of the control
C3 convertase activity IC50: 0.418 µg/mL
B4: pCEP4-1NT9-16CT20 (other)
chain: EDCNELPPRRNTEILTGSWSDQTYPEGTQAIYKCRPGYRSLGNVIMVCRKGEWVALNPLRKCQKRPCGHPGDTPFGTFTLTGGNVFEYGVKAVYTCNEGYQLLGEINYRECDTDGWTNDIPICEVVKCLPVTAPENGKIVSSAMEPDREYHFGQAVRFVCNSGYKIEGDEEMHCSDDGFWSKEKPKCVEISCKSPDVINGSPISQKIIYKENERFQYKCNMGYEYSERGDAVCTESGWRPLPSCEEKSCDNPYIPNGDYSPLRIKHRTGDEITYQCRNGFYPATRGNTAKCTSTGWIPAPRCTLKPCDYPDIKHGGLYHENMRRPYFPVAVGKYYSYYCDEHFETPSGSYWDHIHCTQDGWSPAVPCLRKCYFPYLENGYNQNYGRKFVQGKSIDVACHPGYALPKAQTTVTCMENGWSPTPRCIRVKTCSKSSIDIENGFISESQYTYALKEKAKYQCKLGYVTADGETSGSITCGKDGWSAQPTCIKSCDIPVFMNARTKNDFTWFKLNDTLDYECHDGYESNTGSTTGSIVCGYNGWSDLPICYEREGASGCKSPPEISHGVVAHMSDSYQYGEEVTYKCFEGFGIDGPAIAKCLGEKWSHPPSCIKTDCLSLPSFENAIPMGEKKDVYKAGEQVTYTCATYYKMDGASNVTCINSRWTGRPTCRDTSCVNPPTVQNAYIVSRQMSKYPSGERVRYQCRSPYEMFGDEEVMCLNGNWTEPPQCKDSTGKCGPPPPIDNGDITSFPLSVYAPASSVEYQCQNLYQLEGNKRITCRNGQWSEPPKCLHPCVISREIMENYNIALRWTAKQKLYSRTGESVEFVCKRGYRLSSRSHTLRTTCWDGKLEYPTCAKRGGSGHHHHHH

C3 convertase activity % of the control: 18 % of the control
C3 convertase activity IC50: 0.536 µg/mL
B5: pCEP4-1NT4-9CT20 (other)
chain: EDCNELPPRRNTEILTGSWSDQTYPEGTQAIYKCRPGYRSLGNVIMVCRKGEWVALNPLRKCQKRPCGHPGDTPFGTFTLTGGNVFEYGVKAVYTCNEGYQLLGEINYRECDTDGWTNDIPICEVVKCLPVTAPENGKIVSSAMEPDREYHFGQAVRFVCNSGYKIEGDEEMHCSDDGFWSKEKPKCVEISCKSPDVINGSPISQKIIYKENERFQYKCNMGYEYSERGDAVCTESGWRPLPSCEEKSGASGCDIPVFMNARTKNDFTWFKLNDTLDYECHDGYESNTGSTTGSIVCGYNGWSDLPICYERECELPKIDVHLVPDRKKDQYKVGEVLKFSCKPGFTIVGPNSVQCYHFGLSPDLPICKEQVQSCGPPPELLNGNVKEKTKEEYGHSEVVEYYCNPRFLMKGPNKIQCVDGEWTTLPVCIVEESTCGDIPELEHGWAQLSSPPYYYGDSVEFNCSESFTMIGHRSITCIHGVWTQLPQCVAIDKLKKCKSSNLIILEEHLKNKKEFDHNSNIRYRCRGKEGWIHTVCINGRWDPEVNCSMAQIQLCPPPPQIPNSHNMTTTLNYRDGEKVSVLCQENYLIQEGEEITCKDGRWQSIPLCVEKIPCSQPPQIEHGTINSSRSSQESYAHGTKLSYTCEGGFRISEENETTCYMGKWSSPPQCEGLPCKSPPEISHGVVAHMSDSYQYGEEVTYKCFEGFGIDGPAIAKCLGEKWSHPPSCIKTDCLSLPSFENAIPMGEKKDVYKAGEQVTYTCATYYKMDGASNVTCINSRWTGRPTCRDTSCVNPPTVQNAYIVSRQMSKYPSGERVRYQCRSPYEMFGDEEVMCLNGNWTEPPQCKDSTGKCGPPPPIDNGDITSFPLSVYAPASSVEYQCQNLYQLEGNKRITCRNGQWSEPPKCLHPCVISREIMENYNIALRWTAKQKLYSRTGESVEFVCKRGYRLSSRSHTLRTTCWDGKLEYPTCAKRGGSGHHHHHH

C3 convertase activity % of the control: 15 % of the control
C3 convertase activity IC50: 0.442 µg/mL
B6: pCEP4-1NT7-16CT20 (other)
chain: EDCNELPPRRNTEILTGSWSDQTYPEGTQAIYKCRPGYRSLGNVIMVCRKGEWVALNPLRKCQKRPCGHPGDTPFGTFTLTGGNVFEYGVKAVYTCNEGYQLLGEINYRECDTDGWTNDIPICEVVKCLPVTAPENGKIVSSAMEPDREYHFGQAVRFVCNSGYKIEGDEEMHCSDDGFWSKEKPKCVEISCKSPDVINGSPISQKIIYKENERFQYKCNMGYEYSERGDAVCTESGWRPLPSCEEKSCDNPYIPNGDYSPLRIKHRTGDEITYQCRNGFYPATRGNTAKCTSTGWIPAPRCTLKPCDYPDIKHGGLYHENMRRPYFPVAVGKYYSYYCDEHFETPSGSYWDHIHCTQDGWSPAVPCLRKCYFPYLENGYNQNYGRKFVQGKSIDVACHPGYALPKAQTTVTCMENGWSPTPRCIRVKTGASGCKSPPEISHGVVAHMSDSYQYGEEVTYKCFEGFGIDGPAIAKCLGEKWSHPPSCIKTDCLSLPSFENAIPMGEKKDVYKAGEQVTYTCATYYKMDGASNVTCINSRWTGRPTCRDTSCVNPPTVQNAYIVSRQMSKYPSGERVRYQCRSPYEMFGDEEVMCLNGNWTEPPQCKDSTGKCGPPPPIDNGDITSFPLSVYAPASSVEYQCQNLYQLEGNKRITCRNGQWSEPPKCLHPCVISREIMENYNIALRWTAKQKLYSRTGESVEFVCKRGYRLSSRSHTLRTTCWDGKLEYPTCAKRGGSGHHHHHH

C3 convertase activity % of the control: 14 % of the control
C3 convertase activity IC50: 0.671 µg/mL
B7: pCEP4-1NT10-14CT20 (other)
chain: EDCNELPPRRNTEILTGSWSDQTYPEGTQAIYKCRPGYRSLGNVIMVCRKGEWVALNPLRKCQKRPCGHPGDTPFGTFTLTGGNVFEYGVKAVYTCNEGYQLLGEINYRECDTDGWTNDIPICEVVKCLPVTAPENGKIVSSAMEPDREYHFGQAVRFVCNSGYKIEGDEEMHCSDDGFWSKEKPKCVEISCKSPDVINGSPISQKIIYKENERFQYKCNMGYEYSERGDAVCTESGWRPLPSCEEKSCDNPYIPNGDYSPLRIKHRTGDEITYQCRNGFYPATRGNTAKCTSTGWIPAPRCTLKPCDYPDIKHGGLYHENMRRPYFPVAVGKYYSYYCDEHFETPSGSYWDHIHCTQDGWSPAVPCLRKCYFPYLENGYNQNHGRKFVQGKSIDVACHPGYALPKAQTTVTCMENGWSPTPRCIRVKTCSKSSIDIENGFISESQYTYALKEKAKYQCKLGYVTADGETSGSITCGKDGWSAQPTCIKSCDIPVFMNARTKNDFTWFKLNDTLDYECHDGYESNTGSTTGSIVCGYNGWSDLPICYERECELPKIDVHLVPDRKKDQYKVGEVLKFSCKPGFTIVGPNSVQCYHFGLSPDLPICKEQVQSGASGCPPPPQIPNSHNMTTTLNYRDGEKVSVLCQENYLIQEGEEITCKDGRWQSIPLCVEKIPCSQPPQIEHGTINSSRSSQESYAHGTKLSYTCEGGFRISEENETTCYMGKWSSPPQCEGLPCKSPPEISHGVVAHMSDSYQYGEEVTYKCFEGFGIDGPAIAKCLGEKWSHPPSCIKTDCLSLPSFENAIPMGEKKDVYKAGEQVTYTCATYYKMDGASNVTCINSRWTGRPTCRDTSCVNPPTVQNAYIVSRQMSKYPSGERVRYQCRSPYEMFGDEEVMCLNGNWTEPPQCKDSTGKCGPPPPIDNGDITSFPLSVYAPASSVEYQCQNLYQLEGNKRITCRNGQWSEPPKCLHPCVISREIMENYNIALRWTAKQKLYSRTGESVEFVCKRGYRLSSRSHTLRTTCWDGKLEYPTCAKRGGSGHHHHHH
